Changes are numbered by the printed parent chain.
B1: Anti-IL-6 Ab BA802 (antibody, V domains shown)
VH: QVQLVQSGAEVKKPGASVKVSCKASGFTFSSFAMSWIRQSPSRGLEWLGEISSGGSYTYYPDTVTGRFTISRDNAKNSLYLQMNSLRAEDTAVYYCARGLWGYYALDYWGQG
VL: EIVLTQSPDFQSVTPKEKVTITCSASSSVSYMYWYLQKPGQSPQLLIYDTSNLASGVPSRFSGSGSGTDFTLTISSLQPEDFATYYCQQWSGYPYTFGQG
notes: Humanized monoclonal antibody
B2: Anti-IL-6 Ab BA808 (antibody, V domains shown)
VH: B1 VH
VL: EIVLTQSPATLSVSPGERATLSCSASSSVSYMYWYLQKPGQSPQLLIYDTSNLASGIPPRFSGSGYGTDFTLTINNIESEDAAYYFCQQWSGYPYTFGQG
notes: Humanized monoclonal antibody
B3: Anti-IL-6 Ab BA840 (antibody, V domains shown)
VH: B1 VH with S40P, S42G, R43K, L48I
VL: B2 VL with A9D, T10F, L11Q, S14T, G16K, R18K, A19V, L21I, S22T
notes: Humanized monoclonal antibody
B4: Anti-IL-6 Ab BA848 (antibody, V domains shown)
VH: B1 VH with Q1E, I37V, S40A, S42G, R43Q, L48M
VL: AIQLTQSPSSLSASVGDRVTITCSASSSVSYMYWYQQKPGQAPRLLIYDTSNLASGIPPRFSGSGYGTDFTLTINNIESEDAAYYFCQQWSGYPYTFGQG
notes: Humanized monoclonal antibody
B5: Anti-IL-6 Ab BA890 (antibody, V domains shown)
VH: B1 VH with S40P, S42G, R43K, L48I
VL: B4 VL
notes: Humanized monoclonal antibody
B6: Anti-IL-6 Ab BA939 (antibody, V domains shown)
VH: B1 VH with I37V, S40A, S42G, R43Q, L48M
VL: B4 VL with A1D, L4M
notes: Humanized monoclonal antibody
B7: BA399_CPS_10 (antibody, V domains shown)
VH: B1 VH with G26H, A33S, T58H, L100Q
VL: B4 VL with S24Y, S51L
notes: also called Clone BA399-10; BA399_10
B8: Clone BA399-02 (antibody, V domains shown)
VH: B1 VH with A33S, V64K, L100Q
VL: B4 VL with S24Y
notes: also called BA399-2; BA399 clone #2
B9: Clone BA399-05 (antibody, V domains shown)
VH: B1 VH with V64K, L100Q
VL: B4 VL with S24Y, Q89D
notes: also called BA399-5
B10: Clone BA399-09 (antibody, V domains shown)
VH: B1 VH with A33S, T58H, L100Q
VL: B4 VL with S24Y, S51L
notes: also called BA399-9; BA399 clone #9
B11: BA399_CPS_01 (antibody, V domains shown)
VH: B1 VH with L100Q
VL: B4 VL with Q89D
notes: also called Clone BA399-01; BA399_01
B12: BA399_CPS_03 (antibody, V domains shown)
VH: B1 VH with G26H, T58H, L100Q
VL: B4 VL with S51L
notes: also called Clone BA399-03; BA399_03
B13: BA399_CPS_04 (antibody, V domains shown)
VH: B1 VH with A33S, L100Q
VL: B4 VL with Q89D
notes: also called Clone BA399-04; BA399_04
B14: BA399_CPS_06 (antibody, V domains shown)
VH: B1 VH with A33S, T58H, L100Q
VL: B4 VL with S24Y, S51L, Q89D
notes: also called Clone BA399-06; BA399_06

Biological target: T1, human IL-6 (Interleukin-6) (human, UniProt P05231 30-212)
T1 construct: also called 001 IL-6 antigen
Experiment: Biacore (SPR), antibody captured on anti-human Fc, IL-6 as analyte

Row | Molecule | Kd | koff | kon
1 | B1 | 0.0396 nM | 5.88e-05 s⁻¹ | 1.48e+06 M⁻¹ s⁻¹
2 | B2 | 0.0505 nM | 6.59e-05 s⁻¹ | 1.31e+06 M⁻¹ s⁻¹
3 | B3 | 0.236 nM | 0.000237 s⁻¹ | 1.01e+06 M⁻¹ s⁻¹
4 | B4 | 0.127 nM | 0.000158 s⁻¹ | 1.25e+06 M⁻¹ s⁻¹
5 | B5 | 0.0865 nM | 6.44e-05 s⁻¹ | 745000 M⁻¹ s⁻¹
6 | B6 | 0.04 nM | 5.76e-05 s⁻¹ | 1.44e+06 M⁻¹ s⁻¹

Biological target: T1, human IL-6 (Interleukin-6)
Experiment: as above
Remark: another data set of the same source

Row | Molecule | Ka | Kd | koff | kon
7 | B7 | 3.52e+12 M⁻¹ | 0.284 pM | 1.82e-07 s⁻¹ | 643000 M⁻¹ s⁻¹
8 | B8 | 8.14e+13 M⁻¹ | 0.0123 pM | 9.11e-09 s⁻¹ | 742000 M⁻¹ s⁻¹
9 | B9 | 3.52e+10 M⁻¹ | 28.4 pM | 2.86e-05 s⁻¹ | 1.01e+06 M⁻¹ s⁻¹
10 | B10 | 1.28e+13 M⁻¹ | 0.0783 pM | 5.07e-08 s⁻¹ | 648000 M⁻¹ s⁻¹

Biological target: T1, human IL-6 (Interleukin-6)
Experiment: specific activity: affinity ELISA on IL-6 divided by quantitation ELISA, normalized to BA399 = 1
Method: 200 μl washing solution (0.05% Tween-20 in PBS) was added and shaken at 200 RPM for 5 min at room temperature. The plates were emptied and residual liquid tapped out on paper towels. 200 μl blocking solution (2% Carnation milk in PBS) was added and shaken at 200 RPM for one hour at room temperature. Plates were emptied and residual liquid tapped out on paper towels. 100 μl of diluted samples for ELISA was used. The samples were shaken at 200 RPM for one hour at room temperature; plates emptied and residual liquid tapped out on paper towels. 200 μl washing solution (0.05% Tween-20 in PBS) was added, shaken at 200 RPM for 5 min at room temperature; plates emptied and residual liquid tapped out on paper towels. This process was repeated three times. 100 μl of 1:2500 dilution of anti-human IgG conjugated with HRP diluted in block solution (2% Carnation milk in PBS) was added for 001 samples. 100 μl of 1:2500 dilution of anti-rabbit IgG conjugated with HRP diluted in block solution (2% Carnation milk in PBS) was added for control antibody. The contents were shaken at 200 RPM for one hour at room temperature, plates emptied and residue liquid tapped out on paper towels. 200 μl washing solution (0.05% Tween-20 in PBS) was added, shaken at 200 RPM for 5 min at room temperature; plates emptied and residual liquid tapped out on paper towels. This process was repeated three times. 100 μl TMB substrate solution was added, and incubated at room temperature. The reaction was stopped with 1 N HCl, and the plate read at 450 nm.
This ELISA was used for determining the expression level of antibodies in cell culture supernatant. […] Covered with plate sealer and incubated at 4° C. overnight. Emptied plate and tapped out residual liquid on paper towels. Added 200 μl washing solution (0.05% Tween-20 in PBS). Shaken at 200 RPM for 5 min at room temperature. Emptied plate and tapped out residual liquid on paper towels. Added 200 μl blocking solution (2% Carnation milk in PBS). Shaken at 200 RPM for one hour at room temperature. Emptied plate and tapped out residual liquid on paper towels. Used 100 μl of diluted sample for ELISA. 20 ng/ml of human IgG and 1:2 dilution thereafter was used for standards.

Row | Molecule | binding result
11 | B11 | binds
12 | B12 | binds
13 | B13 | binds
14 | B14 | binds

Biological target: T1, human IL-6 (Interleukin-6)
Experiment: Sapidyne KinExA kinetic exclusion assay on IL-6; Kd Range (95% Confidence Interval) printed: 5.66pM to 3.28pM
Target sequence in this assay (P05231 30-212 limits assumed): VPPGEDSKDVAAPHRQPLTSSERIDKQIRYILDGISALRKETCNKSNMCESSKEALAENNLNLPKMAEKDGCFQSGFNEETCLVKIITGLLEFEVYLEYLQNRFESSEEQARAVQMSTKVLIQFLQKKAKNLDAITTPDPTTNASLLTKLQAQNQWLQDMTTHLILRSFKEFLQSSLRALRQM

Row | Molecule | Kd
15 | Anti-IL-6 Mab BA003 (CNTO136) (antibody) | 4.37 pM
